Experiment [1] addresses SARS-CoV-2 full length spike protein, V483A mutant (SARS-CoV-2), P0DTC2. The settings on record: remark: other sources report otherwise.
The target of experiment [2] is SARS-CoV-2 full length spike protein, V483A mutant, expressed on CHO cells (SARS-CoV-2), P0DTC2. Conditions: remark: other sources report otherwise.

Values joined by “and” are separate entries in the source; they are usually repeats but may differ in a detail not shown here. Identical values can stand only once.

B1: antibody 544 (antibody, V domains shown)
VH: QVQLQQWGAGLLKPSETLSLTCAVYGGSFSGYYWSWIRQPPGKGLEWIGEINHSGSTNYNPSLKSRVTISVDTSKNQFSLKLSSVTAADTAVYYCARGFKWFGELLFGAQGTLVTVSS
VL: not shown
For the molecule B1, the median fold over isotype (fold over isotype) in experiment [1] worked out at 1.58.

B2: antibody 505 (antibody, V domains shown)
VH: EVQLVESGGGLVKPGGSLRLSCAASGFTFSSYSMNWVRQAPGKGLEWVSSISSSSSYIYYADSVKGRITISRDNAKNSLYLQMNSLRAEDTAVYYCAREYPNFRAEWLLSPYGMDVWGQGTTVTVSS
VL: QSALTQPASVSGSPGQSITISCTGTSSDVGSYNLVSWYQQHPGKAPKLMIYEVSKRPSGVSNRFSGSKSGNTASLTISGLQAEDEADYYCCSYAGSSTSVKVFGTGTKVTVL
Consider B2, for which the median fluorescence intensity, fold over isotype control (fold over isotype) in experiment [2] was determined as 1.

B3: antibody 389 (antibody, V domains shown)
VH: QVQLVESGGGVVQPGRSLRLSCAASGFTFSSYAMHWVRQAPGKGLEWVAVISYDGSNKYYADSVKGRFTISRDNSKNTLYLQMNSLRAEDTAVYYCASQGRMYVRGVDYGVYWGQGTLVTVSS
VL: NFMLTQPHSVSESPGKTVTISCTGSSGSIASNYVQWYQQRPGSAPTTVIYEDNQRPSGVPDRFSGSIDSSSNSASLTISGLKTEDEADYYCQSYDSSKISHAVFGGGTQLTVL
Consider B3, for which the median fluorescence fold over isotype control (fold over isotype) in experiment [2] is 1.24.

B4: antibody 538 (antibody, V domains shown)
VH: QLQLQESGPGLVKPSETLSLTCTVSGGSISSSSYYWGWIRQPPGKGLEWIGSINYSGSTYYNPSLKSRVTISVDTSKNQFSLKLSSVTAADTAVYYCARYHDYGDDYWGQGTLVTVSS
VL: QLVLTQSPSASASLGASVKLTCTLSSGHSRYAIAWHQQQPEKGPRYLMKLNSDGSHSKGDGIPDRFSGSSSGAERYLTISSLQSEDEADYYCQTWGTGIQVFGGGTKLTVL
In the case of B4, in experiment [1], the median fold over isotype (fold over isotype) was determined as 1.48.

B5: antibody 436 (antibody, V domains shown)
VH: QVQVVESGGGVVQPGRSLRLSCAASGFTFSSYAMHWVRQAPGKGLEWVAVISYDGNNEYYVDPVKGRFTISRDNSKNTLYLQMNSLRAEDTALYYCATSREAIVVGGILDYWGQGTLVTVSS
VL: DIQMTQSPSSLSASVGDRVTITCQASHDINNFLNWYQQKPGQAPKLLIYDASNLETGVPSRFSGSGSGTDFTFTISSLHPEDVATYYCQQYDGLPRYVTFGQGTKLEIR
For the molecule B5, in experiment [1], the median fluorescence fold over isotype control (fold over isotype) is 0.85.

B6: antibody 390 (antibody, V domains shown)
VH: EVQLVESGGGLIQPGGSLRLSCAASGFTVSSNYMSWVRQAPGKGLEWVSIIYSGGSTYYADSVKGRFTISRDNSKNTLYLQMNSLRAEDSAVYSCATTMVRGLIISYYYGMDVWGQGTTVTVSS
VL: QSALTQPASVSGSPGQSITISCTGTSSDVGGYNYVSWYQQHPGKAPKLMIYEVSNRPSGVSNRFSGSKSGNTASLTISGLQAEDEADYYCSSYTSSSTLVFGGGTKLTVL
As to B6, the median fluorescence fold over isotype control (fold over isotype) in experiment [2] was found to be 1.36.

B7: antibody 413 (antibody, V domains shown)
VH: EVQLVESGGGLIQPGGSLRLSCAASGFTVSGNYMNWVRQAPGKGLEWVSVIYSGGSTYYADSVKGRFTISRANSKNTLYLQMNSLRAEDTAVYYCASTSLVRGLIILYYYGMDVWGQGTTVTVSS
VL: QSALTQPASVSGSPGQSITISCTGTSSDVGGYNYVSWYQQHPGKAPKLMIYEVSNRPSGVSNRFSGSKSGNTASLTISGLQAEDEADYYCSSYTSSSTLVFGGGTKLTVL
Consider B7, for which the median fluorescence fold over isotype control (fold over isotype) in experiment [2] amounted to 1.67.

B8: antibody 507 (antibody, V domains shown)
VH: QVQLQESGPGLVKPSGTLSLTCAVSGGSISSSNWWSWVRQPPGKGLEWIGEIYHSGNTNYNPSLKSRVTISVDKSKNQFSLKLSSVTAADTAVYYCARREWLRLFDYWGQGTLVTVSS
VL: QSALTQPASVSGSPGQSITISCTGTSSDVGSYNLVSWYQQHPGKAPKLMIYEVSKRPSGVSNRFSGSKSGNTASLTISGLQAEDEADYYCCSYAGSSTYVFGTGTKVTVL
For the molecule B8, the median fluorescence intensity, fold over isotype control (fold over isotype) in experiment [2] came out at 1.12.

B9: antibody 524 (antibody, V domains shown)
VH: QVQLVESGGGVVQPGRSLRLSCAASGFTFSSYAMHWVRQAPGKGLEWVAVISYDGSNKYYADSVKGRFTISRDNSKNTLYLQMNSLRAEDTAVYYCAKAGGGSYYRGFDYWGQGTLVTVSS
VL: QSVLTQPPSVSAAPGQKVTISCSGSNSNIGNNYVSWYQQLPGSAPKLLIYDNDKRPSGIPDRFSGSKSGTSATLGITGLQTGDEADYYCGAWDSSLTALVFGGGTKLTVL
With B9, the median fold over isotype (fold over isotype) in experiment [1] is 0.99 and 1.25.

B10: antibody 382 (antibody, V domains shown)
VH: QVQLVESGGGVVQPGRSLRLSCAASGFTFSNYGMHWVRQAPGKGLEWMTVISFDGRNKYYADSVKGRFTISRDNSKNTLFLQMNSLTTEDTALYFCASGRRPRYSSGWSFDYWGQGTLVTVSS
VL: DIQMTQSPSSLSASVGDRVTITCQASQDIGNYLNWYQQKLGKAPNLLIYDASNLETGVPSRFSGSGSGTDFTFTINSLQPEDTATYYCQQYDDPSITFGQGTRLEIK
As to B10, the median fluorescence fold over isotype control (fold over isotype) in experiment [2] amounted to 0.88.

B11: antibody 551 (antibody, V domains shown)
VH: EVQLVESGGGLVQPGGSLRLSCAASGFTFSSYWMSWVRQAPGKGLEWVANINQDGSDKYYVDSVKGRFTISRDNAKNSLYLQMNSLRAEDTAVYYCARAPGWAAAPTFDYWGQGTLVTVSS
VL: QSALTQPRSVSGSPGQSVTISCTGTSSDVGGYNYVSWYQQHPGKAPKFMIYDVSKRPSGVPDRFSGSKSGNTASLTISGLQAEDEADYYCCSYAGSYTLVVFGGGTKLTVL
With B11, in experiment [1], the median fold over isotype (fold over isotype) turned out to be 1.7.

B12: antibody 374 (antibody, V domains shown)
VH: QVQLQESGPGLVKPSGTLSLTCAVSGGSISSSKWWSWVRQPPGKGLEWIGEIYHSGSTNYNPSLKSRVTISVDKSKNQFSLKLSSVTAADTAVYYCARRELGEGTFTYWGQGTLVTVSS
VL: not shown
For the molecule B12, the median fluorescence fold over isotype control (fold over isotype) in experiment [2] turned out to be 1.22.

B13: antibody 304 (antibody, V domains shown)
VH: EVQLLESGGGLVQPGGSLRLSCAASGFTFSTYAMSWVRQAPGKGLEWVSAISGSGGSTYYADSVKGRFTISRDNSKNTLYLQMNSLRAEDTAVYYCASGYSPDYWGQGTLVTVSS
VL: AIQMTQSPSSLSASVGDRVTITCRASQGIRNDLGWYQQKPGKAPKLLIYAASSLQSGVPSRFSGSGSGTDFTLTISSLQPEDFATYYCLQDYNYPRTFGQGTKVEIK
Consider B13, for which the median fluorescence intensity, fold over isotype control (fold over isotype) in experiment [1] came out at 0.66.

B14: antibody 485 (antibody, V domains shown)
VH: QVQLQESGPGLVKPSGTLSLTCAVSGASISSSNWWSWVRQPPGKGLEWIGEIYHSGSTNYNPSLKSRVTISVDKSKNQFSLKLSSVTAADTAVYYCARRSYYGSGSYYPFDYWGQGTLVTVSS
VL: QSALTQPASVSGSPGQSITISCTGTSSDVGSYNLVSWYQQHPGKAPKLMIYEGRKRPSGVSNRFSGSKSGNTASLTISGLQAEDEADYYCCSYAGSSTYVFGTGTKVTVL
Regarding B14, the median fluorescence intensity, fold over isotype control (fold over isotype) in experiment [2] worked out at 1.11.

(Values after US20210292393A1.)
